The text below walks through data of patent publication US20200147244A1.

For assay [1], the target named is recombinant PSMA protein (human) (UniProt Q04609). Put plainly: ELISA on PSMA.
Assay [2] has as its target PSMA-Myc-Flag (Origene) (human) (UniProt Q04609). Put plainly: ELISA, PSMA immobilized by its Myc-Flag tag, PCC titrated in solution.
Assay [3] deals with His-PSMA (Sino Biological) (human) (UniProt Q04609). Nature of the assay: ELISA, PSMA immobilized by its His tag, PCC titrated in solution.
Sequence of His-PSMA (Sino Biological) (human) (Q04609 44-750 limits assumed): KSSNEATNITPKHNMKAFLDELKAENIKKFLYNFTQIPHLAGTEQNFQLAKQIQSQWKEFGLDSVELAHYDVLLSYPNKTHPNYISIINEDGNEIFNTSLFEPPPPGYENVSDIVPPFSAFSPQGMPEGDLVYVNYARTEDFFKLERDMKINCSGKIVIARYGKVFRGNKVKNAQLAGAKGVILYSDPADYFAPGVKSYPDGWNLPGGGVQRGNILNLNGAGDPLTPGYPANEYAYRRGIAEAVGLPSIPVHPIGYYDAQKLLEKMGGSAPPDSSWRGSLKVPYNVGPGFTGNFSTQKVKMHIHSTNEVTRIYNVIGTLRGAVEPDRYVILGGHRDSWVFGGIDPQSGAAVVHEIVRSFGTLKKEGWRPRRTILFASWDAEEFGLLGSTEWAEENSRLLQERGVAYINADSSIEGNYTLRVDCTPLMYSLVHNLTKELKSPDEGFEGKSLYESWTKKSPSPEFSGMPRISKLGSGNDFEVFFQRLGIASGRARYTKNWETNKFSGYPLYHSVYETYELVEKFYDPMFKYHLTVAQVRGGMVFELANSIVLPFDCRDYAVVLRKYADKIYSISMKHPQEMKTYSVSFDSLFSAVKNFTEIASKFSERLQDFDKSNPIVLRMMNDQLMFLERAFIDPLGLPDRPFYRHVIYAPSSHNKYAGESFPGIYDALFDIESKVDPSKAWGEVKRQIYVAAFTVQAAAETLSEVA

Sequence of recombinant PSMA protein (human) (Q04609 44-750 limits assumed): as above
Sequence of PSMA-Myc-Flag (Origene) (human) (Q04609 whole entry): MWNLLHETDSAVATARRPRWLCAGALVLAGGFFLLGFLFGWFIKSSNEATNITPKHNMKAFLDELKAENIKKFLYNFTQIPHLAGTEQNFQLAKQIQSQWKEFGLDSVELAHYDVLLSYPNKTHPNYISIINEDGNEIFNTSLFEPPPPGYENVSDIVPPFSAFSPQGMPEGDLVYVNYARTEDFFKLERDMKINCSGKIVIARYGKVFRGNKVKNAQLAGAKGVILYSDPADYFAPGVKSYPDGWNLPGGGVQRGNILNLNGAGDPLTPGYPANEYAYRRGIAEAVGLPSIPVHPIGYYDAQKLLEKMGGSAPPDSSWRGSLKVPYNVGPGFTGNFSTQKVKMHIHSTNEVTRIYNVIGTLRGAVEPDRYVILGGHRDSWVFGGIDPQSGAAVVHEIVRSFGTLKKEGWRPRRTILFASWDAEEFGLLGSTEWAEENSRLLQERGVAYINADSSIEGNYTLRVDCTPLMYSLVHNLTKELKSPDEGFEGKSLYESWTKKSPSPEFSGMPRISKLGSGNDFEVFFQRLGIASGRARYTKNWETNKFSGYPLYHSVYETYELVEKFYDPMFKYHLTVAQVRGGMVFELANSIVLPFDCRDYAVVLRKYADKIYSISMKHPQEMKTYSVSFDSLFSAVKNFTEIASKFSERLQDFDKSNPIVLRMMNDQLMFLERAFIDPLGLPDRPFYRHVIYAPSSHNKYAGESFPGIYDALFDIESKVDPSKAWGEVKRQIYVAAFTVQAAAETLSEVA

As to hnwlG (SEQ ID NO:19) (peptide), the EC50 in assay [1] came out at 5580 nM.
In the case of hreww (SEQ ID NO:10) (peptide), the EC50 was determined as 662 nM in assay [2] and 872 nM in assay [3].
In the case of lfkhh (SEQ ID NO:16) (peptide), in assay [1], the half-maximal effective concentration (EC50) stood at 8.6 nM.
